Measurements: US20230025732A1 (INNATE PHARMA, published 2023)

Assays:
[1] = target: T1, CD39-M2 extracellular domain recombinant protein (soluble recombinant human CD39 with M2 tag) (human, UniProt P49961 38-478, limits assumed); test: cell-based or functional assay
T1 sequence: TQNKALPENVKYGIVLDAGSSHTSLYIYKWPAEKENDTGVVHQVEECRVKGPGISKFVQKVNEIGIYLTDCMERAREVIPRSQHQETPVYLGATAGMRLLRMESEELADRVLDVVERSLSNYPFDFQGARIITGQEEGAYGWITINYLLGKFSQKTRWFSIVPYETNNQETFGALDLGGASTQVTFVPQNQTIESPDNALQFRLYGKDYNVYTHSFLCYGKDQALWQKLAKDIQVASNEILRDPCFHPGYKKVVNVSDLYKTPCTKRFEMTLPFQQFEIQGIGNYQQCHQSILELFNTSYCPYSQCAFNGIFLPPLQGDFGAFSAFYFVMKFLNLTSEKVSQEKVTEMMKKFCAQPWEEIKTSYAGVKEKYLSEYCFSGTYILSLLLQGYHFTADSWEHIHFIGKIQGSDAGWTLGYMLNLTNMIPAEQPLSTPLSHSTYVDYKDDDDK

[2] = target: T2, human CD39 expressed at the cell surface (human, UniProt P49961 1-510); test: cell-based or functional assay
T2 sequence: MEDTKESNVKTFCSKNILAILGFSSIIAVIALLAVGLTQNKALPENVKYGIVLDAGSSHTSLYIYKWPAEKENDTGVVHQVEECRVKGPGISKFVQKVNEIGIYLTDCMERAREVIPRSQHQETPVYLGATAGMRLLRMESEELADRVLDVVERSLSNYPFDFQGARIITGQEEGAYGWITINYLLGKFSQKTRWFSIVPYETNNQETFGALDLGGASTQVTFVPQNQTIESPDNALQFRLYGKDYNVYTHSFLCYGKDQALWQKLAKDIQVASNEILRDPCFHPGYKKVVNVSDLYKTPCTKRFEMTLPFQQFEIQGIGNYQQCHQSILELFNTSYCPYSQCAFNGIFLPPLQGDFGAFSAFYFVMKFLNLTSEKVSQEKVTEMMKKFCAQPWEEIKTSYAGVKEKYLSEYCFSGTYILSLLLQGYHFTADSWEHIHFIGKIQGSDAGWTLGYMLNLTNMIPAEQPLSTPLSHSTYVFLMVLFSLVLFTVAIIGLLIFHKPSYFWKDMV

[3] = target: T3, cynomolgus (Macaca fascicularis) CD39 on CHO cells (cynomolgus (Macaca fascicularis), UniProt A0A7N9DGH8 1-510); test: flow cytometry titration on CHO cells expressing cynomolgus CD39 (Mediane of Fluo), panel CHO-cyCD39
T3 construct: whole, on cells; also called CHO-cyCD39; cyCD39
T3 sequence: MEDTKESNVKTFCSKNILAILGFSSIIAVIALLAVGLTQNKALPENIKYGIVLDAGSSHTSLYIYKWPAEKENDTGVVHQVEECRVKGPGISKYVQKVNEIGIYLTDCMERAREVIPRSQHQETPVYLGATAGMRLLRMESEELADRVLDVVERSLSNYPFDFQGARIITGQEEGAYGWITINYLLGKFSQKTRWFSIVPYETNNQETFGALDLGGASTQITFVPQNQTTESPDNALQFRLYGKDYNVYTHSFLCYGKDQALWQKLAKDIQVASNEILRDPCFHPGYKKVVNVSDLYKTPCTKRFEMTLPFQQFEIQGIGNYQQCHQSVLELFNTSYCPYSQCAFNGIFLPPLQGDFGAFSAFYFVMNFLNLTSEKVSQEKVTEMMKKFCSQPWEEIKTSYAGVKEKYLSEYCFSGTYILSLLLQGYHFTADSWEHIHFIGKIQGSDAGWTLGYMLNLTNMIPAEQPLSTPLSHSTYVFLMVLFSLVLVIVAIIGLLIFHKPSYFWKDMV
Description: (§1) Cells were incubated with various concentration of unlabeled anti-CD39 antibody from 30 μg/ml to 5×10⁻⁴ μg/ml, for 30 minutes at 4° C. After washes, cells were incubated with Goat anti-mouse H+L labeled secondary antibody for 30 min at 4° C.

[4] = target: T2, human CD39 expressed at the cell surface; test: flow cytometry titration on Ramos lymphoma cells (Mean of Fluorescence), panels L0, L1 and L1*
[5] = target: T4, Human CD39-L4, also known as NTPDase5 or ENTPD5 (human, UniProt O75356 25-428); test: ELISA on coated recombinant human CD39-L4, panel huCD39 L4; no legend on the sheet, curve is I-394 by paragraph 85
T4 construct: Recombinant protein coated in ELISA
T4 sequence: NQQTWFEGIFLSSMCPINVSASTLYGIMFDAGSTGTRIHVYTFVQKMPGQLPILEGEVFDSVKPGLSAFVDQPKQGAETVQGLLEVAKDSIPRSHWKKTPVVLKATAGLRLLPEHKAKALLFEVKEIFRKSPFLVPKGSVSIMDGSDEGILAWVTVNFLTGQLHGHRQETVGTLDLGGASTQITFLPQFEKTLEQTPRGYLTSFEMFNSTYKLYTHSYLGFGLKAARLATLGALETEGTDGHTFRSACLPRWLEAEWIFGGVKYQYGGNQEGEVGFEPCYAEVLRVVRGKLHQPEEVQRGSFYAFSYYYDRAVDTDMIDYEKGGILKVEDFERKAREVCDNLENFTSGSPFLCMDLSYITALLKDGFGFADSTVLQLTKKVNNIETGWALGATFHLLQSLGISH
Description: Wells were washed in TBS Tween 20, and further saturated 2H at RT in TBS Blocking buffer. Dose range concentration of primary antibody was incubated in TBS blocking buffer for 2 h at RT. Wells were washed in TBS Tween 20. […] Optical density was measured on Enspire™ at OD=450.

[6] = target: T2, human CD39 expressed at the cell surface; test: flow cytometry, Ramos lymphoma cells, first set of experiments; Ramos cells, first set of experiments
Description: as §1

- IC50, inhibition of ATPase activity of soluble CD39 [1]: 0.003 µg/mL
- IC50, inhibition of CD39 ATPase activity in Ramos cells [2]: 0.05 µg/mL
- EC50 (read off the curve) [3]: ~0.4 µg/mL
- EC50 (read off the curve) [4]: ~0.5 µg/mL
- binding result [5]: no binding (tested: about 50 µg/ml)
- EC50 [6]: 0.16 µg/mL
B1: I-394 (antibody, human IgG1, V domains shown)
VH: EVQLQQSGPELVKPGASVKMSCKASGYTFTDYNMHWVKQSHGRTLEWIGYIVPLNGGSTFNQKFKGRATLTVNTSSRTAYMELRSLTSEDSAAYYCARGGTRFAYWGQGTLVTVSA
VL: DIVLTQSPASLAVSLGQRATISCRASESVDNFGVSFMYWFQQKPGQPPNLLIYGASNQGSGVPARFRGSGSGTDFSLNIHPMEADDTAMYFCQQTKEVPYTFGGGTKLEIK
